Reference: article PMC6868513
“And” between values parts separate entries of the source, which are not always exact repeats. Identical values can stand only once. One block for each molecule: values may come before it.

Tests used:
[1] = molecular target: BTNL3 IgV domain (wild type) (UniProt Q6UXE8); test: SPR; conditions: parent: est. 1; read off a plot
[2] = molecular target: Soluble endothelial protein C receptor (EPCR) (UniProt Q9UNN8); test: SPR; conditions: parent: est. 1; read off a plot
UniProt Q9UNN8, sequence (Q9UNN8 whole entry, looked up, tested part not stated): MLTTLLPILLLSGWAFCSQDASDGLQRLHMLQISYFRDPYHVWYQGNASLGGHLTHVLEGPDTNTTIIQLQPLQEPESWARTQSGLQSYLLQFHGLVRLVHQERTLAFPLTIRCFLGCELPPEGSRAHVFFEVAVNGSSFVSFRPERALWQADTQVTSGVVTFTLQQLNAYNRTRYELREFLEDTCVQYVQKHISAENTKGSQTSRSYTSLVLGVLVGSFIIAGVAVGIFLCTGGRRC

[3] = molecular target: BTNL3.8 heterodimer on 293T cells (human) (UniProt Q6UXE8)
soluble Vγ4Vδ1 TCR = test: flow cytometry on cells; conditions: anti-His mAb, read off a plot
[4] = molecular target: LES Vγ4Vδ5 TCR, soluble, wild type (human); test: SPR; BIAcore3000; biotinylated wt or mutant LES TCR (1000-3500 RU) captured on streptavidin-coated CM5 chip; analyte (BTNL3 or BTNL8 IgV, EPCR) 1-200 μM; HBS-EP; 25°C; equilibrium analysis
[5] = molecular target: LES Vγ4Vδ5 TCR, soluble, wild type (human); test: as above; remark: listed apart in the source
[6] = molecular target: LES Vγ4Vδ5 TCR, soluble, wild type (human); test: ITC; iTC200; 20°C; 20mM Tris pH 8, 50 mM NaCl; TCR in the cell at 70 μM, BTNL3 at ten-fold higher concentration titrated as 20 × 2 μl injections; single independent binding site model
[7] = molecular target: LES Vγ4Vδ5 TCR, soluble, wild type (human); test: SPR; competition: wt EPCR (2500-3000 RU) immobilised on the chip; LES TCR injected at 12.5 μM with increasing BTNL3 IgV (3.5-113 μM) or BTNL8 IgV (2.2-70.5 μM); response as percent of that without competitor
[8] = soluble Vγ4Vδ1 0.1 µg/ml (read from x axis), parent: est. 9.0
[9] = soluble Vγ4Vδ1 10 µg/ml (read from x axis), parent: est. 31
[10] = soluble Vγ4Vδ1 about 2 µg/ml (read from x axis), parent: est. 16

UniProt Q6UXE8, sequence (Q6UXE8 whole entry, looked up, the tested form may be a part): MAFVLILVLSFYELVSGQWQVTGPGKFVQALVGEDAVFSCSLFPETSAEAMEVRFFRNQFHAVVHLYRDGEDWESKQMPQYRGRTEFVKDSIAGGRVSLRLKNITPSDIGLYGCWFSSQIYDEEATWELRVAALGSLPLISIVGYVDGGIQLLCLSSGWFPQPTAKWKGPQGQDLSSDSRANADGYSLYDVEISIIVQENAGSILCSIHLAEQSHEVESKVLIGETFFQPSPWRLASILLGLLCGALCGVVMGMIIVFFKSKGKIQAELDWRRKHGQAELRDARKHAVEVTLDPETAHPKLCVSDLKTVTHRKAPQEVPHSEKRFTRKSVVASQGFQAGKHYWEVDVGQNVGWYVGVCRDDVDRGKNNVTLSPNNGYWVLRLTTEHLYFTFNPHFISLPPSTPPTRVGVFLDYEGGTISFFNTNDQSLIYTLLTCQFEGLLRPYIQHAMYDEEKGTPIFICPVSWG

Molecule: LES Vγ4Vδ5 TCR, soluble, wild type γ:…>… (HV4; D>Y; G>A)
ratio to parent [2]: 0.53

Molecule: mo5 Vγ7Vδ2-2 TCR with the HV4 loop of human Vγ4, on Jurkat 76 cells
CD69 expression on transduced J76 cells in response to BTNL3.8-expressing target cells, over control (flow cytometry) [3]: > 3 fold

Molecule: BTNL3.8 heterodimer on 293T cells (from UniProt Q6UXE8;Q6UX41) EDWESK>KDQPFM (in BTNL3)
response (gMFI fold relative to ctrl) (soluble Vγ4Vδ1 TCR; [8]): 4.1 | response (gMFI fold relative to ctrl) (soluble Vγ4Vδ1 TCR; [9]): 7.7 | response (gMFI fold relative to ctrl) (soluble Vγ4Vδ1 TCR; [10]): 5

Molecule: LES Vγ4Vδ5 TCR, soluble, wild type γ:EGST>AWRY (CDR1)
ratio to parent [1]: 1.3 | ratio to parent [2]: 6.6

Molecule: LES Vγ4Vδ5 TCR, soluble, wild type γ:…>ATWEG--YKKLF (CDR3, as aligned)
ratio to parent [1]: 0.72

B1: BTNL3 IgV domain (wild type) (domain or fragment)
chain: QWQVTGPGKFVQALVGEDAVFSCSLFPETSAEAMEVRFFRNQFHAVVHLYRDGEDWESKQMPQYRGRTEFVKDSIAGGRVSLRLKNITPSDIGLYGCWFSSQIYDEEATWELRV
Kd [4]: 15 to 25 µM and 20.7 µM | Kd [5]: 22.1 µM and 20.9 µM | Kd [6]: 3.5 µM | dH [6]: -8.1 kcal/mol | percent of LES TCR binding to EPCR left with the competitor [7]: < 40%

Now from value to molecule:

ratio to parent [1]: 0.3
Molecule: LES Vγ4Vδ5 TCR, soluble, wild type δ:RGYTG>EGSKW (CDR3)

ratio to parent [1]: 0.38 | ratio to parent [2]: 1.4
Molecule: LES Vγ4Vδ5 TCR, soluble, wild type γ:…>… (HV4; K>N; M>L)

ratio to parent [1]: 0.6 | ratio to parent [2]: 0.25
Molecule: LES Vγ4Vδ5 TCR, soluble, wild type δ:NSMF>YRKS (CDR1)

CD69 expression on transduced J76 cells in response to BTNL3.8-expressing target cells, over control (flow cytometry) [3]: > 3 fold | TCR downmodulation on transduced J76 cells after co-culture with 293T.L3L8 cells, against WT Vγ4 TCR transductants (flow cytometry) ([3]; scale: % of the TCR downmodulation of WT Vγ4 TCR transductants): 90
Molecule: mo5 Vγ7Vδ2-2 TCR with the CDR2 and HV4 loops of human Vγ4, on Jurkat 76 cells

response (gMFI fold relative to ctrl) (soluble Vγ4Vδ1 TCR; [8]): 1.2 | response (gMFI fold relative to ctrl) (soluble Vγ4Vδ1 TCR; [9]): 1.2 | response (gMFI fold relative to ctrl) (soluble Vγ4Vδ1 TCR; [10]): 1.4
Molecule: BTNL3.8 heterodimer on 293T cells (from UniProt Q6UXE8;Q6UX41) NQFHA>GQFSS (in BTNL3)

ratio to parent [1]: 0.88 | ratio to parent [2]: 1
Molecule: LES Vγ4Vδ5 TCR, soluble, wild type δ:SSIK>RYRE (CDR2)

ratio to parent [1]: 0.066 | ratio to parent [2]: 1.8
Molecule: LES Vγ4Vδ5 TCR, soluble, wild type γ:DSYT>KYSR (CDR2)
